Data taken from patent US20250066503A1, “CELL INJURY INDUCING THERAPEUTIC DRUG FOR USE IN CANCER THERAPY” (CHUGAI SEIYAKU KABUSHIKI KAISHA, priority 2016, published 2025).
Substitutions are numbered along the chain they refer to.

B1: TR01H067-E22Hh/none-Hi-Kn010G3/L0262-k0 (antibody, V domains shown)
VH: QVQLVESGGGLVQPGRSLRLSCAASGFTFSNAWMHWVRQAPGKGLEWVAQIKDKSQNYATYYAESVKGRFTISRDDSKNSLYLQMNSLKTEDTAVYYCRYVHYAASYGVDAWGQGTTVTVSS
VL: DIVMTQSPLSLPVTPGEPASISCRSSQPPVHSNRNTYLHWYQQKPGQAPRLLIYKVSNRFSGVPDRFSGSGSGTDFTLKISRVEAEDVGVYYCAQGTQVPYTFGQGTKLEIK
notes: one-arm
B2: TR01H062-E22Hh/none-Hi-Kn010G3/L0000-k0 (antibody, V domains shown)
VH: B1 VH with D75A, L81I
VL: DIVMTQSPLSLPVTPGEPASISCRSSQSLVHSNRNTYLHWYQQKPGQAPRLLIYKVSNRFSGVPDRFSGSGSGTDFTLKISRVEAEDVGVYYCGQGTQVPYTFGQGTKLEIKR
notes: one-arm
B3: TR01H006-E22Hh/none-Hi-Kn010G3/L0000-k0 (antibody, V domains shown)
VH: B1 VH with D53A, D75A, L81I, A104G, S106Y, A111I
VL: B2 VL
notes: one-arm
B4: TR01H004-E22Hh//-Hi-Kn010G3/L0000-k0 (antibody, V domains shown)
VH: B1 VH with L11V, D53A, Q56N, Y100R, A104Y, A105Y, S106Y
VL: B2 VL
notes: one-arm; also called TR01H004-E22Hh//-Hi-Kn010G3/10000-ko
B5: TR01H082-E22Hh/none-Hi-Kn010G3/L0272-k0 (antibody, V domains shown)
VH: B1 VH with S106G
VL: B1 VL with P29L, N35Q, A94G
notes: one-arm
B6: TR01H082-E22Hh/none-Hi-Kn010G3/L0259-k0 (antibody, V domains shown)
VH: B1 VH with S106G
VL: B1 VL with P28S, L38I, A94T
notes: one-arm
B7: CE115HA124-E22Hh//-Hi-Kn010G3/L0000-k0 (antibody, V domains shown)
VH: B1 VH with L11V, D53A, K54L, Q56N, A104G, S106Y
VL: B2 VL
notes: one-arm
B8: TR01H082-E22Hh/none-Hi-Kn010G3/TR01L023-k0 (antibody, V domains shown)
VH: B1 VH with S106G
VL: B1 VL with P28S, Q42L, A48S, R50Q, A94T
notes: one-arm
B9: TR01H067-E22Hh/none-Hi-Kn010G3/TR01L015-k0 (antibody, V domains shown)
VH: B1 VH
VL: B1 VL with P28S, Q42L, A48S, R50Q, A94G
notes: one-arm
B10: CE115HA192-E22Hh//-Hi-Kn010G3/L0000-k0 (antibody, V domains shown)
VH: B1 VH with L11V, D53A, Q56N, A104Y, S106Y
VL: B2 VL
notes: one-arm
B11: CE115HA252-E22Hh//-Hi-Kn010G3/L0000-k0 (antibody, V domains shown)
VH: B1 VH with L11V, D53A, Q56N, A59K, T60K, A104Y, A105Y, S106Y
VL: B2 VL
notes: one-arm
B12: TR01H010-E22Hh/none-Hi-Kn010G3/L0000-k0 (antibody, V domains shown)
VH: B1 VH with D53A, Q56N, D75A, L81I, A104S, S106Y, A111I
VL: B2 VL
notes: one-arm
B13: TR01H082-E22Hh/none-Hi-Kn010G3/L0263-k0 (antibody, V domains shown)
VH: B1 VH with S106G
VL: B1 VL with P28S, L38I
notes: one-arm
B14: TR01H082-E22Hh/none-Hi-Kn010G3/L0268-k0 (antibody, V domains shown)
VH: B1 VH with S106G
VL: B1 VL with P28S, L38I, H39Q, A94V
notes: one-arm
B15: TR01H082-E22Hh/none-Hi-Kn010G3/L0266-k0 (antibody, V domains shown)
VH: B1 VH with S106G
VL: B1 VL with A94V
notes: one-arm
B16: TR01H082-E22Hh/none-Hi-Kn010G3/L0267-k0 (antibody, V domains shown)
VH: B1 VH with S106G
VL: B1 VL with S25P, P28S, A94V
notes: one-arm
B17: TR01H012-E22Hh/none-Hi-Kn010G3/L0000-k0 (antibody, V domains shown)
VH: B1 VH with D53A, Q56N, D75A, L81I, A104Y, A105Y, A111I
VL: B2 VL
notes: one-arm
B18: TR01H009-E22Hh/none-Hi-Kn010G3/L0000-k0 (antibody, V domains shown)
VH: B1 VH with D53A, Q56N, E64P, D75A, L81I, A104G, S106Y, A111I
VL: B2 VL
notes: one-arm
B19: TR01H084-E22Hh/none-Hi-Kn010G3/L0270-k0 (antibody, V domains shown)
VH: B1 VH with L11V, R16G, D75A, L81I, S106G, A111I
VL: B1 VL with P28S, P29L, N35Q, A94G
notes: one-arm
B20: TR01H013-E22Hh/none-Hi-Kn010G3/L0000-k0 (antibody, V domains shown)
VH: B1 VH with D53G, D75A, L81I, A104G, S106Y, A111I
VL: B2 VL
notes: one-arm
B21: TR01H084-E22Hh/none-Hi-Kn010G3/L0271-k0 (antibody, V domains shown)
VH: B1 VH with L11V, R16G, D75A, L81I, S106G, A111I
VL: B1 VL with N35Q, A94G
notes: one-arm
B22: TR01H082-E22Hh/none-Hi-Kn010G3/TR01L018-k0 (antibody, V domains shown)
VH: B1 VH with S106G
VL: B1 VL with R24Q, S25A, Q27E, P28S, Q42L, A48S, R50Q, A94G
notes: one-arm
B23: CE115HA177-G1dh//-Hi-Kn010G3/L0000-k0 (antibody, V domains shown)
VH: B1 VH with D53A, Q56N, D75A, L81I, A104G, S106Y
VL: B2 VL
notes: one-arm
B24: TR01H082-E22Hh/none-Hi-Kn010G3/L0262-k0 (antibody, V domains shown)
VH: B1 VH with S106G
VL: B1 VL
notes: one-arm
B25: TR01H071-E22Hh/none-Hi-Kn010G3/L0200-k0 (antibody, V domains shown)
VH: B1 VH with Q56N, D75A, L81I, A111I
VL: B1 VL with S25P, P28S, A94G
notes: one-arm
B26: TR01H081-E22Hh/none-Hi-Kn010G3/L0262-k0 (antibody, V domains shown)
VH: B1 VH with D75A, L81I, S106G, A111I
VL: B1 VL
notes: one-arm
B27: TR01H082-E22Hh/none-Hi-Kn010G3/L0270-k0 (antibody, V domains shown)
VH: B1 VH with S106G
VL: B1 VL with P28S, P29L, N35Q, A94G
notes: one-arm
B28: TR01H082-E22Hh/none-Hi-Kn010G3/L0258-k0 (antibody, V domains shown)
VH: B1 VH with S106G
VL: B1 VL with A94T
notes: one-arm
B29: CE115HA178-G1dh//-Hi-Kn010G3/L0000-k0 (antibody, V domains shown)
VH: B1 VH with D53A, Q56N, L81I, A104G, S106Y, D110Q
VL: B2 VL
notes: one-arm
B30: TR01H082-E22Hh/none-Hi-Kn010G3/TR01L017-k0 (antibody, V domains shown)
VH: B1 VH with S106G
VL: B1 VL with P28S, L38I, H39Q, Q42L, A48S, R50Q, A94Y
notes: one-arm
B31: TR01H067-E22Hh/none-Hi-Kn010G3/TR01L016-k0 (antibody, V domains shown)
VH: B1 VH
VL: B1 VL with P28S, Q42L, A48S, R50Q, A94Y
notes: one-arm
B32: TR01H084-E22Hh/none-Hi-Kn010G3/L0262-k0 (antibody, V domains shown)
VH: B1 VH with L11V, R16G, D75A, L81I, S106G, A111I
VL: B1 VL
notes: one-arm
B33: TR01H067-E22Hh/none-Hi-Kn010G3/TR01L018-k0 (antibody, V domains shown)
VH: B1 VH
VL: B1 VL with R24Q, S25A, Q27E, P28S, Q42L, A48S, R50Q, A94G
notes: one-arm
B34: TR01H071-E22Hh/none-Hi-Kn010G3/L0215-k0 (antibody, V domains shown)
VH: B1 VH with Q56N, D75A, L81I, A111I
VL: B1 VL with L38I, A94G
notes: one-arm
B35: TR01H014-E22Hh/none-Hi-Kn010G3/L0000-k0 (antibody, V domains shown)
VH: B1 VH with D53G, Q56N, E64P, D75A, L81I, A104G, S106Y, A111I
VL: B2 VL
notes: one-arm
B36: TR01H011-E22Hh/none-Hi-Kn010G3/L0000-k0 (antibody, V domains shown)
VH: B1 VH with D53A, Q56N, D75A, L81I, A104G, A111I
VL: B2 VL
notes: one-arm
B37: TR01H008-E22Hh/none-Hi-Kn010G3/L0000-k0 (antibody, V domains shown)
VH: B1 VH with D53G, Q56N, D75A, L81I, A104G, S106Y, A111I
VL: B2 VL
notes: one-arm
B38: CE115HA121-E22Hh/-Hi-Kn010G3/L0000-k0 (antibody, V domains shown)
VH: B1 VH with L11V, Q50L, D53A, Q56N, A104G, S106Y
VL: B2 VL
notes: one-arm
B39: TR01H007-E22Hh/none-Hi-Kn010G3/L0000-k0 (antibody, V domains shown)
VH: B1 VH with D53S, Q56N, D75A, L81I, A104G, S106Y, A111I
VL: B2 VL
notes: one-arm
B40: TR01H082-E22Hh/none-Hi-Kn010G3/L0271-k0 (antibody, V domains shown)
VH: B1 VH with S106G
VL: B1 VL with N35Q, A94G
notes: one-arm
B41: TR01H084-E22Hh/none-Hi-Kn010G3/L0272-k0 (antibody, V domains shown)
VH: B1 VH with L11V, R16G, D75A, L81I, S106G, A111I
VL: B1 VL with P29L, N35Q, A94G
notes: one-arm
B42: TR01H003-E22Hh//-Hi-Kn010G3/L0000-k0 (antibody, V domains shown)
VH: B1 VH with L11V, D53A, Q56N, Y100R, A104G, S106Y
VL: B2 VL
notes: one-arm
B43: CE115HA179-G1dh//-Hi-Kn010G3/L0000-k0 (antibody, V domains shown)
VH: B1 VH with D53A, Q56N, D75A, L81I, A104G, S106Y, D110Q
VL: B2 VL
notes: one-arm
B44: TR01H082-E22Hh/none-Hi-Kn010G3/L0260-k0 (antibody, V domains shown)
VH: B1 VH with S106G
VL: B1 VL with S25P, P28S, A94T
notes: one-arm
B45: TR01H071-E22Hh/none-Hi-Kn010G3/L0226-k0 (antibody, V domains shown)
VH: B1 VH with Q56N, D75A, L81I, A111I
VL: B1 VL with P28S, L38I, A94I
notes: one-arm
B46: CE115HA180-G1dh//-Hi-Kn010G3/L0000-k0 (antibody, V domains shown)
VH: B1 VH with L11V, D53A, Q56N, D75A, A104G, S106Y, D110Q
VL: B2 VL
notes: one-arm
B47: TR01H083-E22Hh/none-Hi-Kn010G3/L0262-k0 (antibody, V domains shown)
VH: B1 VH with Q56N, D75A, L81I, S106G, A111I
VL: B1 VL
notes: one-arm
B48: TR01H082-E22Hh/none-Hi-Kn010G3/L0264-k0 (antibody, V domains shown)
VH: B1 VH with S106G
VL: B1 VL with S25P, P28S
notes: one-arm

target: T1, soluble human CD3 epsilon chain (human, UniProt P07766 23-126); assay: SPR
T1 construct: also called CD3ε
T1 sequence (P07766 23-126 limits assumed): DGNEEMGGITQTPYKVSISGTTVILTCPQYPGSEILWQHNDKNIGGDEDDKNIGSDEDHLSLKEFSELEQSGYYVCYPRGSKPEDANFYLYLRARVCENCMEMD

Binder	Kd
B1	49.2 nM
B2	31.3 nM
B3	23 nM
B4	135 nM
B5	74.4 nM
B6	50.7 nM
B7	143 nM
B8	42.5 nM
B9	86.4 nM
B10	50.5 nM
B11	9.48 nM
B12	37.3 nM
B13	30.9 nM
B14	136 nM
B15	22.9 nM
B16	22.9 nM
B17	7.94 nM
B18	31.5 nM
B19	27.6 nM
B20	49.4 nM
B21	27.6 nM
B22	47.2 nM
B23	35.5 nM
B24	39.8 nM

Binder	Kd
B25	6.13 nM
B26	5.76 nM
B27	74.2 nM
B28	47 nM
B29	10.9 nM
B30	109 nM
B31	10.9 nM
B32	8.51 nM
B33	52.6 nM
B34	9.51 nM
B35	38.7 nM
B36	37.1 nM
B37	42.2 nM
B38	67.6 nM
B39	21.7 nM
B40	68.2 nM
B41	31 nM
B42	40.3 nM
B43	8.35 nM
B44	45.3 nM
B45	25.1 nM
B46	16.8 nM
B47	2.45 nM
B48	34.4 nM
